In patent US20230212319A1, “NOVEL ANTIGEN BINDING DOMAINS AND SYNTHETIC ANTIGEN RECEPTORS INCORPORATING THE SAME” (University of Southern California, priority 2020, published 2023):

What was measured:
HepG2 cells = assay type: cell-based
[1] = system: Raji cells expressing a membrane anchored scFv targeting Dsg3; assay: JNG assay, co-culture with Raji cells expressing a membrane anchored scFv targeting Dsg3; assay type: cell-based; conditions: compared to parental Raji cells
Protocol: Cellular supernatant is collected and assayed for the induction of cytokines (e.g., IL2).
JNG (Jurkat cells expressing EGFP under an NFAT promoter) were infected with lentiviral vectors encoding different single chain and multi-chain SARs by spinfection in the presence of 8 µg/ml of Polybrene® (Sigma, Catalog no. H9268). The Jurkat-NFAT-GFP cells are engineered in such a way that the IL-2 promoter, which carries NFAT binding sites, is cloned upstream of the GFP gene. These cells have been used to study signaling via TCR and CAR. The different SARs were stably expressed in Jurkat NFAT-GFP cells by lentiviral mediated gene transfer, followed by selection with puromycin or blasticidin. No drug selection was used in case the construct lacked an antibiotic resistance gene. […] GFP expression was monitored by FACS analysis. […] The structure of different constructs can be determined based on their names. […] The sequence of the other constructs in the table can be similarly determined from their names and by referring to the different Tables of this disclosure that provide the names and SEQ ID NO of the different modules. Alternatively, the composition and modular architecture of the different SAR constructs can be determined from their sequences by bioinformatics tools, including using nucleic acid and amino acids homology searches. […]

[2] = system: target cell lines expressing a non-secretory form of a luciferase; assay: Assay for cytotoxic activity (Matador assay, luciferase release); assay type: cell-based; conditions: TRAC-targeted T cells, versus construct SEQ ID NO: 23329
Protocol: Cell lines engineered to express luciferases (e.g., GLuc or NLuc) for measuring cytotoxicity of different constructs targeting different cell surface and intracellular antigens are provided in Table C-1. Cells were cultured at 37° C., in a 5% CO2 humidified incubator. The cell lines were obtained from ATCC, NIH AIDS reagent program or were available in the laboratory.
The generation of Chimeric antigen receptor (e.g., 2nd generation CARs, SIRs, Ab-TCR and TFP etc.), the generation and use of GGS-NLuc fusion proteins (Topanga and Malibu-Glo assays), and the generation and use of luciferase (e.g., GLuc) reporter cell lines for measurement of cellular cytotoxicity using the Matador assays have been described (PCT/US2017/024843, PCT/US2017/025602, PCT/US2017/052344, PCT/US2017/064379 and PCT/US2018/53247).
(C) Assay for Cytotoxic Activity in vitro and in vivo: The uninfected T cells or those expressing a control vector or SAR are cocultured with the target cell lines expressing a non-secretory form of a luciferase (such as GLuc, NLuc, Turboluc 16 etc.) for 4-96 hours and induction of cell lysis examined by measuring the luciferase activity as described in PCT/US17/52344.

target cells = assay: Xenograft model in immunodeficient mice; assay type: in vivo; conditions: TRAC-targeted T cells, versus construct SEQ ID NO: 23329
Description: Animal models can also be used to measure SAR activity. For example, xenograft model using human cancer associated antigen described herein-specific SAR^+ T cells to treat a primary human pre-B-ALL in immunodeficient mice can be used. Dose dependent SAR treatment response can be evaluated. See, e.g., Milone et al., Molecular Therapy 17(S): 1453-1464 (2009). Assessment of cell proliferation and cytokine production has been previously described, e.g., at Milone et al., Molecular Therapy 17(S): 1453-1464 (2009). Cytotoxicity can be assessed by a standard ^51Cr-release assay or Matador assay. Imaging technologies can be used to evaluate specific trafficking and proliferation of SIRs in tumor-bearing animal models.
The cells expressing the SAR constructs are exposed to RAJI and L363 target cells and tested in functional assays as described above. […] It is also observed that co-expression of the constant chains of both TCRγ and TCRδ can also rescue the expresson of SARs on TFP backbone in αβ T cells in which the expression of endogeneous TCRα and/or TCRβ constant chains has been eliminated by insertion of the SAR expresson cassette at the endogenous TRAC or/and TRBC loci. Exemplary constructs to express TCRγ and TCRδ chains are provided in SEQ ID NO: 23333 and 23334, respectively.

B1: 22257 (protein)
chain: MGPRLLFWALLCLLGTGPVEAGVTQSPTHLIKTRGQQATLRCSPISGHTSVYWYQQALGLGLQFLLWYDEGEERNRGNFPPRFSGRQFPNYSSELNVNALELEDSALYLCASSLGGPRGLAGLRGDEQFFGPGTRLTVLEGTGGGGSGGGEFDIQMTQSPSSLSASVGDRVTITCKASDHINNWLAWYQQKPGQAPKLLIYGATTLETGVPSRFSGSGSGTDYTLTISSLQPEDFATYYCQQSWNTPWTFGQGTKLEIKRLEGQPKANPTVTLFPPSSEELQANKATLVCLISDFYPGAVTVAWKADGSPVKAGVETTKPSKQSNNKYAASSYLSLTPEQWKSHRSYSCQVTHEGSTVEKTVAPTECSGRADCGFTSESYQQGVLSATILYEILLGKATLYAVLVSALVLMAMVKRKDSRGRAKRSGSGATNFSLLKQAGDVEENPGPTSATMDWIWRILFLVGAATGAHSGPQVQLQESGGGLAQAGGSLRLSCAASGRTFSMGWFRQAPGKEREFVAAITYSGGSPYYASSVRGRFTISRDNAKNTVYLQMNSLKPEDTAVYYCAANPTYGSDWNAENWGQGTQVTVSSGSGGGGSGGGGSGGGGSFEQVQLQQPGAELVKPGASVKMSCKASGYAFSSYWINWMKQKPGQGLEWIGQIYPGDGDTNYNGKFKGRATLTADTSSSTAYMQLSSLTSEDSAVYFCARSITTVVGCAMDYWGQGTSVTVSSTRASTKGPSVFPLAPSSKSTSGGTAALGCLVKDYFPEPVTVSWNSGALTSGVHTFPAVLQSSGLYSLSSVVTVPSSSLGTQTYICNVNHKPSNTKVDKRVEPKSCIPEDTFFPSPESSCDVKLVEKSFETDTNLNFQNLSVIGFRILLLKVAGFNLLMTLRLWSSRAKRSGSGVKQTLNFDLLKLAGDVESNPGPSRGHMTEYKPTVRLATRDDVPRAVRTLAAAFADYPATRHTVDPDRHIERVTELQELFLTRVGLDIGKVWVADDGAAVAVWTTPESVEAGAVFAEIGPRMAELSGSRLAAQQQMEGLLAPHRPKEPAWFLATVGVSPDHQGKGLGSAVVLPGVEAAERAGVPAFLETSAPRNLPFYERLGFTVTADVEVPEGPRTWCMTRKPGA
HepG2 cells
  NFAT-GFP ASSAY: HepG2: RAJI (2+), HepG2 (-/^+)

B2: CD8SP-Dsg3-EC1-EC2-L693-IgCL-TCRb-wt2-opt-6MD-F-P2A-IgHSP-CD20-vHH2-HCD25-G4S-CD19-hu-mROO5-1-vH-IgG1-CH1-TCRa-wt2-opt-6MD-F-F2A-PAC (protein)
chain: MALPVTALLLPLALLLHAARPACEWVKFAKPCREGEDNSKRNPIAKITSDYQATQKITYRISGVGIDQPPFGIFVVDKNTGDINITAIVDREETPSFLITCRALNAQGLDVEKPLILTVKILDINDNPPVFSQQIFMGEIEENSASNSLVMILNATDADEPNHLNSKIAFKIVSQEPAGTPMFLLSRNTGEVRTLTNSLDREQASSYRLVVSGADKDGEGLSTQCECNIKVKDVNDNFPMFRDSLEGQPKANPTVTLFPPSSEELQANKATLVCLISDFYPGAVTVAWKADGSPVKAGVETTKPSKQSNNKYAASSYLSLTPEQWKSHRSYSCQVTHEGSTVEKTVAPTECSGRADCGFTSESYQQGVLSATILYEILLGKATLYAVLVSALVLMAMVKRKDSRGRAKRSGSGATNFSLLKQAGDVEENPGPTSATMDWIWRILFLVGAATGAHSGPQVQLQESGGGLAQAGGSLRLSCAASGRTFSMGWFRQAPGKEREFVAAITYSGGSPYYASSVRGRFTISRDNAKNTVYLQMNSLKPEDTAVYYCAANPTYGSDWNAENWGQGTQVTVSSGSGGGGSGGGGSGGGGSFEQVQLQQPGAELVKPGASVKMSCKASGYAFSSYWINWMKQKPGQGLEWIGQIYPGDGDTNYNGKFKGRATLTADTSSSTAYMQLSSLTSEDSAVYFCARSITTVVGCAMDYWGQGTSVTVSSTRASTKGPSVFPLAPSSKSTSGGTAALGCLVKDYFPEPVTVSWNSGALTSGVHTFPAVLQSSGLYSLSSVVTVPSSSLGTQTYICNVNHKPSNTKVDKRVEPKSCIPEDTFFPSPESSCDVKLVEKSFETDTNLNFQNLSVIGFRILLLKVAGFNLLMTLRLWSSRAKRSGSGVKQTLNFDLLKLAGDVESNPGPSRGHMTEYKPTVRLATRDDVPRAVRTLAAAFADYPATRHTVDPDRHIERVTELQELFLTRVGLDIGKVWVADDGAAVAVWTTPESVEAGAVFAEIGPRMAELSGSRLAAQQQMEGLLAPHRPKEPAWFLATVGVSPDHQGKGLGSAVVLPGVEAAERAGVPAFLETSAPRNLPFYERLGFTVTADVEVPEGPRTWCMTRKPGA
[1]
  GFP induction: increased GFP induction

B3: SEQ ID NO: 23330: targeting construct coexpressing a TCRα constant chain with a SAR on TFP backbone targeting BCMA and CD22, directed to the TRAC locus (protein)
chain: FKIPIEELEDRVFVNCNTSITWVEGTVGTLLSDITRLDLGKRILDPRGIYRCNGTDIYKDKESTVQVHYRMCQSCVELDPATVA
[2]
  cytotoxicity: greater
Target cells
  in vivo anti-tumor activity against the target cells: greater
